This is an account of results in the DeepSol protein solubility set.

The series can be described thus: soluble on expression in E. coli; label from the status in PepcDB or PDB records.
Take “MGSDKIHHHHHHMDIKLKDFEGPLDLLLHLVSKYQVDIYEVPITEVIEQYLAYIATLQAMRLEVAGEYMLMASQLMVIKSRRLLPKVVEQIDPEDDPEMDLLDQLEEYRKFKLLSEKLGEQHDERANYFSKPKLDLIYDDVQLAKDKTIIDIFLAFSKVMAEKQASLRQSHATIARDEYKIEDMMDFVRSRFETGPRLELRQLFQESQDVNEMITIFLATLELVKVHEIVLEQTETFGDIYLVRSEDESLS”: the “soluble on expression in E. coli” value was “not soluble”.

For the sequence “MSLILVKDAIITGKKQDLLVEGNIIKKIGNISISEVSKDETEIIDGKNCVLIPGLINTHTHVPMSLFRGVADDIPLMEWLSGHIWPMESKLNEKIVYAGTLLGTIEMIKSGTTAFNDMYFFLDSIIKAVDETGIRSTIAYGMIDLFDEEKREKELKTAKESLEMIKNLNNSRITGALGPHAPYTCSKEILESTNALAREYNVPIHIHMNETLDEINQVVEKTGMRPFEYLNSFGFFDNVNTICAHCVHLSASEIQIMKEKNIFAAHNPVSNLKLASGVSPVLKLLENNIPVTLGTDGCGSNNNMNLFEEIKAAALIHKGVNLNPVAVIAKDAFDFGTKNGAKALNINSGEIKEGKLADFVLINMKKPYLTPKENIESHLVYSFNGVVDKVVIDGKLVLNDGKMVNIDEEKVYEIAEEAYFELANEGHHHHHH”, the “soluble on expression in E. coli” value was “not soluble”.

As for “MFIEVEKFVEARTNSIAQLLKAIDNDALVSGEVTKGPRTAAQRLPRHMRRRAMAYDIRRFPRTMREFAAAHLISKHAKKCPSRFARRKSANSRTKFGRSTSTKGIWLSTHVWHAKRFRMIQKWGFKLADRSFQRGFRAVLRDSNKNCVIRDRSYYTCVTIQCTDAYSKISQFSQKGCRGQSSRDEEEECHQLYMPGKYPFGYIGPARFQRLSGDKVHIWIHPSSKLQFMKALLEYYNLEKQENTEEDLYKNSEIKVSIDAENICRFHLSGPKCLSKLRDSIRFVNDEKFSSEHNYFLSVSDSVFQSSRDGEVINLLIEDPRTTWDRKTVLKHKKVNKEADNERIRVSKFWNKEFREMAIEKRMADSEFHKQNSSKINGVISTEAKVPIILIIRNEGLKALDGADILIPEPFAKDFWVSLQRRGVRASGLRDEYAAHLESKALYYPLDDVGSEAGRESELAMKKELIEKYLGKPHNRRCKHWSAVSVKYPFEFKWDELSQDWNLSNKPRSEAFVCRDLQKLRIIEEAMKKGSGLEEFQEPGMLIPVKLQFFGRGRPKKYGMVCLPTDDDLISIRKNRNREIIQTPPEASSQDSDIVEAMEIEEITVKKNQGFMSLEAAASEKPINLKLLFEETTKLDDKTTKRKRVNRKKRESKKRRKIEQEKRKEEAEVEEVQKLATKYRFSANREIIGRLVAGEQSVLAGHGVGIGYICANTLSLIASNYHKSKTVVMVRNSTSKYYHPAYVTILKNATKI”, the “soluble on expression in E. coli” value is recorded as “not soluble”.

Regarding “MLEQILLGTYTRRASQGIYKIALDTTQGRLTEATLLLEETSPTYLALSQKGELFSVTSVDGEGGTAAYQPEMDHFNLLNKVTEEGAPPCYVAVDENRQLVYAANYHQGIVHVYRILEDGSLEDADKVIHTEPTGPHENQNNAHVHYTDLTPDQRLVVCDLGTDRVYTYNVSLDGKLSEIAQFVTEPGTGPRHLVFHPTKSLAYLFGELDSTVSVLSYDETDGSFTELQKVSTLPADYDAFNGGAAIRISSDGRFLYASNRGHNSIAVYAVSENGEAIERIQLISTEGDIPRDFDLDPSEDFIVVANQDSDNLTLYRRNQETGLLEMIQKDVAVPECVCVLFVLEHHHHHH”, the “soluble on expression in E. coli” value was “soluble”.

Take “MVSLPVVLIADKLAPSTVAALGDQVEVRWVDGPDRDKLLAAVPEADALLVRSATTVDAEVLAAAPKLKIVARAGVGLDNVDVDAATARGVLVVNAPTSNIHSAAEHALALLLAASRQIPAADASLREHTWKRSSFSGTEIFGKTVGVVGLGRIGQLVAQRIAAFGAYVVAYDPYVSPARAAQLGIELLSLDDLLARADFISVHLPKTPETAGLIDKEALAKTKPGVIIVNAARGGLVDEAALADAITGGHVRAAGLDVFATEPCTDSPLFELAQVVVTPHLGASTAEAQDRAGTDVAESVRLALAGEFVPDAVNVGGGVVNEEVAPWLDLVRKLGVLAGVLSDELPVSLSVQVRGELAAEEVEVLRLSALRGLFSAVIEDAVTFVNAPALAAERGVTAEICKASESPNHRSVVDVRAVGADGSVVTVSGTLYGPQLSQKIVQINGRHFDLRAQGINLIIHYVDRPGALGKIGTLLGTAGVNIQAAQLSEDAEGPGATILLRLDQDVPDDVRTAIAAAVDAYKLEVVDLS”: the “soluble on expression in E. coli” value is listed as “soluble”.

Consider “MAHHHHHHMRNSKEGNLIVHDLDFMKRILLNDERKWGEESAPGEGRTESSHQPKIITIVLNNTLCAHSAKFIANSDVLICADGGANRLYNLCQSLATERGAIDDEGSSLKGEEDKNTALHASHTNERSHHVSGRHTISDLFNMPVEKKEKALKRPTEIVPHIICGDFDSINAHVYSYYKNKSVIFEKCANQENTDLDKCIDVIRGYIRTNDKILILGATGNRFDHTCANISCLYKNASLNSLYLIGENNFLFLLQQGSHIIHVSPDVFCKGCGILPFGGKCTIKTEGLKYNLNDECLSFDTLISSSNEVVQREVKIFNDSPVVWSAQLRGDAQSHTHS”, for which the “soluble on expression in E. coli” value is “soluble”.

For the sequence “NPNTCTESIGKVAPSYVDEPESEAPATAENTQPDVIIDWQAALKQSANKEDLAKDMLRMLIDFIPEVEEVVDHALEQDDYSREELIHVIHKLHGSSSYCGVPRLKSLCATLEHALRSGASIEEIEPEMFELQDEMIKVTTTAKLYLEQ”, the “soluble on expression in E. coli” value is reported as “not soluble”.

As for “SVFDIYKIGVGPSSSHTVGPMKAGKEFIDDLRAMGKLRDITKITVDVYGSLSLTGKGHHTDIAIIMGLAGNSPEKVDIDSIPGFIARVEETERLPVGMHCHTVSFPREGGMNFHKTNLELHENGMQIHAWIDDEKVYSKTYYSIGGGFIVDEENFGK”, the “soluble on expression in E. coli” value is listed as “soluble”.

For “MRSPDSDRPVHRMRALREAVSDADSHSRRGGRMIAREWQFALPEKKHKKKYFGNLKAEVIDAGLCCHCAACASICPVNGITAGDAPIDFPNWVKECVDCGACIKVCPRWEYTPKNGLGEYIEVVAARSKRFVGQDGAMVTEFTASALEMGIIERAIFVARDSNWRTRVVTIKTPEQLYDRKITGTKYSYADVLPALKEAVLKSEAVGFVGTPCMVSAVRKMQQAFKKFERVKLAIGLFCTENFYHHDLYKFLLEKANADLRNAVKTDIKKGKFIVEMKDGSKVRIPVKDFEEIIPSGCKVCQDFAAVESDVSVGSVGSPNRFSTVMVRTEVAKQILDYIREKDYAEFGEAKLDIVQKLCDHKMKIHPWPPKKKEEKSEELEHHHHHH”, the “soluble on expression in E. coli” value is “soluble”.

For the sequence “MAWWKAWIEQEGVTVASSSHFNPDPDAETLYKAMKGIGTNEQAIIDVLTKRSNTQRQQIAKSFKAQFGKDLTETLKSELSGKFERLIVALMYPPYRYEAKELHDAMKGLGTKEGVIIEILASRTKNQLREIMKAYEEDYGSSLEEDIQADTSGYLERILVCLLQGSRDDVSSFVDPALALQDAQDLYAAGEKIRGTDEMKFITILCTRSATHLLRVFEEYEKIANKSIEDSIKSETHGSLEEAMLTVVKCTQNLHSYFAERLYYAMKGAGTRDGTLIRNIVSRSEIDLNLIKCHFKKMYGKTLSSMIMEDTSGDYKNALLSLVGSDP”, the “soluble on expression in E. coli” value is on record as “soluble”.

On to “AIADELNSPLGERAQGASLAHVVWSDPQWLERYPLTFENVLTYFSRSPFYDPTCNNELVRMQMHPELQGEMLYYTQREEELLLGMQGVEYVPLCSSDAHELFIIRKQVRRSADEVHVTNLYYILYGQVYEAPAFSTVLLVRLRQSADFLVRSLGLLRQWLSKKEYGEPGATGHGHEDTLLLQLLRKAQQRNRQL”, for which the “soluble on expression in E. coli” value is listed as “soluble”.

As to “MGSDKIHHHHHHMLYFQNAFSLRGTHDAIIVGIFEGHEPLVAELKQLDETLNGHLSTLVKQKQLKTEAGKITELYTFGLIETKWVLAVGLGKRSDASADTLRAGFAAVGERVKEKRMTNVTVVLPSFVSERVSEQEVARLFGESFTMGYSTIDDYKERTNLVDKSLNSVTVFHGHRPVETGIREGIAYGNGSVYAERLMSIPRTLLSPTELVTEAQALANRHGFDTETLEQKELEKLGMGGLLAASGPAENATMIVLKNKGKREEREVIGLIGAGGNGIFSPWMGGAAAVLGAMDIIGSLHSQKNVLAILPIVEQEQGQPKPMPGDVIRSYSGKTIEVDHIEAVGALLLADGITYAKELGVHSLVTVAPLAEELRSILGDKFTAAVTNDESWLKKMQEASLKSGEPIWTLPYYRPYKKRLQEESVADLRLTIGRFANCMATALFVGEFAENDPWVHLDIAGTVARARGIMVRTLAAFVLNNGERELR”, the “soluble on expression in E. coli” value is given as “not soluble”.
